Reference: article PMC12638309

T1: Mam2, fungal peptide-sensing GPCR (P-factor) (UniProt Q00619)
T1 sequence: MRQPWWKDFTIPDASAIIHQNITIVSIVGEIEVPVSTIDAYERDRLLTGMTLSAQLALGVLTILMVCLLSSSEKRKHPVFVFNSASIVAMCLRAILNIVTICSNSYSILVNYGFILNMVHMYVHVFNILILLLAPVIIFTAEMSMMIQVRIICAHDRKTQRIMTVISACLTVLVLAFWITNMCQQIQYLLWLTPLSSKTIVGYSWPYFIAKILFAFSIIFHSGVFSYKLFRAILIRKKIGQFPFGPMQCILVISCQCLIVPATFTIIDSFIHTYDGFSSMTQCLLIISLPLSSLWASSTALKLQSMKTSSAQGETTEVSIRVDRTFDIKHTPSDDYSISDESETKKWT

T2: Ste2, native ɑ-factor pheromone-sensing mating GPCR (S. cerevisiae) (UniProt D6VTK4)
T2 sequence: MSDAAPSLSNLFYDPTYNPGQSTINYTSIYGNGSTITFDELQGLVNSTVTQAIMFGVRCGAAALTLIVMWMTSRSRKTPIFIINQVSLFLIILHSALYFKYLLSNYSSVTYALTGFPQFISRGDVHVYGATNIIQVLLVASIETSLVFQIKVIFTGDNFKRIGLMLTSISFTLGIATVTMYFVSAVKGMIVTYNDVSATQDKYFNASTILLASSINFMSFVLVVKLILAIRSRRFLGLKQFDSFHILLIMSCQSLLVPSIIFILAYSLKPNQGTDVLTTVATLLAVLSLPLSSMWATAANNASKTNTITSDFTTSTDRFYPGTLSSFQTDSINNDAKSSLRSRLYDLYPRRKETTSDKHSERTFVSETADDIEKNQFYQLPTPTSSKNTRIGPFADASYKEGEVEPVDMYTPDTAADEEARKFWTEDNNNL


Key:
[1] = target: T1, Mam2, fungal peptide-sensing GPCR (P-factor)
[2] = target: T2, Ste2, native ɑ-factor pheromone-sensing mating GPCR (S. cerevisiae)
[3] = target: T2, Ste2, native ɑ-factor pheromone-sensing mating GPCR (S. cerevisiae); remark: listed apart in the source

fold change of surface-displayed CD19 (P FUS1-CD19 output of the pheromone response pathway, flow cytometry) in yeast expressing Mam2 (DIX60), 0, 1 and 10 µM P-factor, 20 h, pH 5 [1] [fold] | fold change of surface-displayed CD19 (P FUS1-CD19 output of the pheromone response pathway, flow cytometry) in yeast expressing Ste2 (DIX45), 0, 0.01 and 1 µM ɑ-factor, 20 h, pH 5 [2] [fold] | fold up-regulation of surface-displayed CD19 from P FIG1 in Ste2 yeast, 0-100 µM ɑ-factor, 20 h [3] [fold] | fold up-regulation of surface-displayed CD19 from P FUS1 in Ste2 yeast, 0-100 µM ɑ-factor, 20 h [3] [fold] | fold up-regulation of surface-displayed CD19 from P MFA2 in Ste2 yeast, 0-100 µM ɑ-factor, 20 h [3] [fold] | fold up-regulation of surface-displayed CD19 from P TDH3 (pheromone response pathway boost) in Ste2 yeast, 0-100 µM ɑ-factor, 20 h [3] [fold] | Binder
249 | – | – | – | – | – | TYADFLRAYQSWNTFVNPDRPNL [P-factor]
– | 312 | 630 | 774 | 323 | 3.1 | WHWLQLKPGQPMY [ɑ-factor]
